# Measurements published in patent publication US20150351390A1, “COMPOSITIONS AND METHODS FOR AUXIN-ANALOG CONJUGATION” (PIONEER HI-BRED INTERNATIONAL, INC., priority 2012, published 2015).
# B1: GmGH3-21: GH3 protein, accession CAA42636 (protein)
# chain: MAIATCDHDKNAKALQFIEDMTQNTESVQERVLAEILSQNSQTEYLKRFELNGATDRDTFKSKVPVVSYDDLKHDIHRIANGDRSPILCAHPISEFLTSSGTSAGERKLMPTIRQEMDRRQLIFSLPMPVMNQYVTDMDKGKALIFLFTKAEQKTPSGLVARPVSASMYKSDQFKNRPYDPYNVYTSPDEAILCPDSFQSMYTQMLCGLIMRHQVLRVGANFASGLLRSIHLLQLNWAQLSHDISTGTLNPKITDPAIKQRMTQILKPDPELAEFIVKECSGENWERIIPRIWPNTKYVEVVVTGAMAQYVPTLDYYSGGLPLASNIYGSSECFFGINLNPFCNPSDVSYTIMPNMGYFEFLPQDHDDASSSSGSSFTLSRLIDLDDVELGKSYEIVVTTYSGLCRYRVGDILRVTGFHNTAPQFSFVRRKNVLLSIDSDKTDEAELQNAVEKASVLLKEFKTSVVEYTSFADTKSIPGHYVIYWELLMKDSSNAPTTEALEQCCLTMEESLNAVYRQGRVADHSIGPLEIRVVKNGTFEELMDYAISRGASISQYKVPRCVTFTPITELLDSRVESVHFSPSEPHWTPERRR
# modifications: Glycine max
# B2: AtGH3-6: GH3 protein, accession Q9LSQ4 (protein, listed as Arabidopsis thaliana)
# chain: MPEAPKIAALEVSDESLAEKNKNKLQFIEDVTTNADDVQRRVLEEILSRNADVEYLKRHGLEGRTDRETFKHIMPVVTYEDIQPEINRIANGDKSQVLCSNPISEFLTSSGTSGGERKLMPTIEEELDRRSLLYSLLMPVMDQFVPGLDKGKGMYFLFIKSESKTPGGLPARPVLTSYYKSSHFKNRPYDPYTNYTSPNQTILCSDSYQSMYSQMLCGLCQHKEVLRVGAVFASGFIRAIKFLEKHWPELARDIRTGTLSSEITDSSVREAVGEILKPDPKLADFVESECRKTSWQGIITRLWPNTKYVDVIVTGTMSQYIPTLDYYSNGLPLVCTMYASSECYFGVNLRPLCKPSEVSYTLIPNMAYFEFLPVHRNSGVTSSISLPKALTEKEQQELVDLVDVKLGQEYELVVTTYAGLYRYRVGDVLSVAGFKNNAPQFSFICRKNVVLSIDSDKTDEVELQNAVKNAVTHLVPFDASLSEYTSYADTSSIPGHYVLFWELCLNGNTPIPPSVFEDCCLTIEESLNSVYRQGRVSDKSIGPLEIKMVESGTFDKLMDYAISLGASINQYKTPRCVKFAPIIELLNSRVVDSYFSPKCPKWSPGHKQWGSN
# B3: CcGH3: GH3 protein, accession AAS02074 (protein)
# chain: MAVDSVLSSPLGPPACEKDAKALQFIEEMTRNADAVQQRVLDEILTRNSQTEYLKRFKLDGVSDRETFKSRIPVVTYEDLQPEIQRIANGDRSPILSAHPISEFLTSSGTSAGERKLMPTIKEELDRRQLLYSLLMPVMNLYVPGLDKGKGLYFLFIKSETKTPGGLLARPVLTSYYKSEHFKSRPHDPYNVYTSPNEAILCADSFQSMYTQMLCGLYEREQVLRLGAVFASGLVRAIRFLQLHWPQLAHDIRTGNLNPQITNLSLCERMGKIMRPNPELADFVAGECCKENWEGIITRIWPKTKYLDVIVTGAMAQYIPTLDYYSGGLPKACTMYAASECYFGLNLNPMCKPSEVSYTIMPNMGYFEFLPHDSTTTNSSPTNLVDLVDVEVGKEYELVITTYAGLYRYRVGDILRVTGFHNSAPQFHFVRRKNVLLSIDADKTDEAELQKAVENASKLLREFNTSVVEYTSYADTKTIPGHYVIYWELLMKDLKNSPSDEVLNKCCLAMEESLNTVYRQGRVACNSIGPLEIRVVKNGTFEELMDYAISRGASINQYKVPRCVNFAPILELLDSRVMSSHFSPSLPQWTPERRR
# modifications: Capsicum chinense
# B4: MtGH3: GH3 protein, accession ABN09059 (protein, listed as Medicago truncatula)
# chain: MPTSLDYDLSQKNKKTLDFIEDITTHADEIQKKVLAEILNRNANVEYLQRHGLNGHTDSETFKKLLPIITYEDIQNDINLIANGDTSPILTSNPISNFLTSSGTSGGERKLMPATEEEFGRRYLLYSYLMPIMSQFIPDLEKGKGMYLMFIKNESKTPGGIKASPVLTNYYKSSHFLNRPYDPYTNFTSPNETVLCLDSYQSMYSQLLCGLIQNNEVLRVGAVFASGLIRAIRFLEKNWRLLCNDIRTGTLDLLITDDSVREAVMKILKPNKNLADFVEGECNKGSWQGIITRLWPNTKYVDVIVTGTMSQYIPTLDYYSNGLPLVCTMYASSECYFGVNLNPLSKPCHVSYTLIPTMCYYEFLPVNRSNCEVNGSIPPSTTKSLGEKKYQEVVDLVDVKLGQEYELVVTTYAGLYRYKVGDVLKVTGFKNKAPQFSFVCRKNVVLSIESDKTDEVELQNAMKNAVTHLAPFEADVAEYTSYADTTTIPGHYVLYWELNLKGSTKIPHSVYEDCCLTIEESLNSVYRQGRVSDKSIGPLEIKIVEQGTFDKLMDYAINLGASINQYKTPRCVKFAPMVELLESRVMAKYFSPKCPKWVPGHKKWNNE
# B5: NtGH3: GH3 protein, accession AAD32141 (protein, listed as Nicotiana tabacum)
# chain: MAVDSVLSSPLGPPACEKDAKALQFIEEMTRNADAVQERVLNEILTRNSQTEYLKRFKLDGVSDRETFKNKIPVVTYEDLQPEIQRIANGDRSPILSAHPISEFLTSSGTSAGERKLMPTIKEELDRRQLLYSLLMPVMNLYVPGLDKGKGLYFLFIKSETKTPGGLLARPVLTSYYKSEHFKRRPHDPYNVYTSPNEAILCADSFQSMYTQMLCGLYEREQVLRLGAVFASGLVRAIRFLQLHWPQLAHDIRTGTLNPEITDPSICERMGLVMRPNPKLADFVTDECSKENWEGIITRIWPKTKYLDVIVTGAMAQYIPTLDYYSGGLPKACTMYAASECYFGLNLNPMCKPSEVSYTIMPNMGYFEFLPHDPNSSRDSTRNLVDLVDVEVGKEYELVITTYAGLYRYRVGDILRVTGFHNSAPQFHFVRRKNVLLSIDSDKTDEAELQRAVENASKLLKEFNTSVVEYTSYADTKTIPGHYVIYWELLMKDLNNSPSDEVLNKCCLAMEESLNTVYRQGRVACNSIGPLEIRVVKNGTFEELMDYAISRGASINQYKVPRCVSFAPILELLDSRVMSRHFSPSLPQWTPERRH
# B6: PtGH3-1: GH3 protein, accession EEE70316 (protein, listed as Populus trichocarpa)
# chain: MAIESVLSPLGPPACEKDAKALQFIEDMTANVDLVQERVLKEILTSNAETEYLQKYHLNGATDRDSFKSKIPMVTYEDLQPQIQRIANGDKSPILSSHPISEFLTSSGTSAGERKLMPTIEEEMDRRQLLYSLLMPVMNLYVPGLDKGKGLYFYFIKAEAKTPGGLVARPVLTSYYKSKQFKTRPYDPYNVITSPNETILCVDSFQSMYSQMLCGLIMREEVLRVGAVFASGLLRAIRFLQLNWKELANDISTGSLNPKVTNPSIRECMAKILKPNQELAEFITKECSDENWERIITRIWPNTKYLDVIVTGAMAQYIPTLDYYSGGLPKPCTMYASSECFFGLNLRPMSEPSEVSYTIMPNMGYFEFLPHDPSAPAFSRESPPRLLDLADLEVGKEYELVITTYSGLNRYRVGDILLVTGFYNKAPQFRFVRRKNVLLSIESDKTDEAELQKAIDNASLLLREFNTSVVEYTSYAETKIIPGHYVIYWELLVKDPANSPTEEVLNQCCLAMEESLNSVYRQSRVADNSIGPLEIRVVKNGTFEELMDYAISRGASINQYKVPRCVSFTPIMELLDSRVVSKHFSPSVPHWTPERRS
# B7: PiGH3-16: GH3 protein, accession CAJ14972 (protein)
# chain: MPQAKREEGIESVQESIIIATTERNRKALDFIEHATIHAAEVQAEVLLEILTRNAYTEYLERYQLTGRTDRKSFKERLPVITYEDLQPEILRIANGDMSPILSAHPISEFLTSSGTSAGERKIMPTIHEELKRRTLLYSLLMPVMNQYMKGLDKGKGMYFLFVKSETRTPGGLLARPVLTSYYKSQDFIERPYDPYNVYTSPMEAILCSDSYQSMYCQLLCGLAQNHEVLRVGAVFASGLLRAIRFLEEHWQSLCQDIRSGTVNDEEVTDPCLRESVMKILHPNTQLADLIRTECSKESWQGIITRLWPNARYLDVIVTGAMAQYIKTLDFYSGGLPQVCTMYASSECYFGINLKPLCQPWEVSYTLMPNMAFFEFLPVYRNKNEDAGPVTTATEQPAELVDLVDVKVGQEYELVITTYSGLYRYRVGDVLRVTGFHNAAPQFQFVCRKNVMLSIDADKTDEAELHNAVMNAVKHLEPLEATLVEYTSYTDTSTIPGHYVLYWELRTSALPVPPSVFEDCCLTVEESLNSVYRQCRVADKSIGPLEIKVVEMGTFDKLMDYAISRGSSINQYKAARCVKFAPMVDILNSRVSASYFSPRCPKWTAGRTQWGALPR
# modifications: Pinus pinaster
# Assay: LC-MS assay of GH3 conjugation of 2,4-D with Asp or Glu
# Assay type: biochemical
# Conditions: conjugation of 2,4-D with Asp by recombinant GH3 protein; 2,4-D-Asp product by LC-MS; 5 mM 2,4-D substrate
# How it was run: (§1)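 N-terminal His-tagged GH3 homologs, expressed in E. coli C41(DE3) and Ni-NTA purified, at 44 to 164 μg/mL incubated 3 h at 30 °C in 20 mM Tris-HCl pH 8.0, 5 mM MgCl2, 1 mM DTT, 5 mM ATP, 5 mM auxin (IAA, 2,4-D or dicamba) and 5 mM Asp or Glu. Conjugates quantified by LC-MS against standards after MeOH precipitation; kinetics from Michaelis-Menten fits of initial velocities.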
row,Molecule,"kcat (hrs−1) 2,4-D-Asp"
1,B1,27.468 h⁻¹
2,B2,2.136 h⁻¹
3,B3,2.517 h⁻¹
4,B4,1.494 h⁻¹
5,B5,1.990 h⁻¹
6,B6,4.798 h⁻¹
7,B7,0.379 h⁻¹

# Same assay, conditions: conjugation of 2,4-D with Glu by recombinant GH3 protein; 2,4-D-Glu product by LC-MS; 5 mM 2,4-D substrate
row,Molecule,"kcat (hrs−1) 2,4-D-Glu"
1,B1,22.910 h⁻¹
2,B2,0.598 h⁻¹
3,B3,0.577 h⁻¹
4,B4,0.122 h⁻¹
5,B5,0.804 h⁻¹
6,B6,0.181 h⁻¹
7,B7,0.089 h⁻¹

# Assay: LC-MS assay of GH3 conjugation of IAA with Asp or Glu
# Assay type: biochemical
# Conditions: conjugation of IAA with Asp by recombinant GH3 protein; IAA-Asp product by LC-MS
# How it was run: as §1
row,Molecule,kcat (hrs−1) IAA-Asp
1,B1,1087.519 h⁻¹
2,B2,447.107 h⁻¹
3,B3,414.234 h⁻¹
4,B4,337.033 h⁻¹
5,B5,716.658 h⁻¹
6,B6,900.907 h⁻¹
7,B7,656.761 h⁻¹

# Same assay, conditions: conjugation of IAA with Glu by recombinant GH3 protein; IAA-Glu product by LC-MS
row,Molecule,kcat (hrs−1) IAA-Glu
1,B1,1075.524 h⁻¹
2,B2,14.154 h⁻¹
3,B3,15.608 h⁻¹
4,B4,11.549 h⁻¹
5,B5,34.341 h⁻¹
6,B6,39.695 h⁻¹
7,B7,51.037 h⁻¹
